Experimental data reported in publication PMC5890176.
Blank lines part the entries; values can stand above or below the substance they belong to.

What was measured:
[1] = molecular target: HU of Streptococcus pneumoniae (SpnHU) (Streptococcus pneumoniae R6); experiment: cross-linking; 0.1% glutaraldehyde, room temperature, 30 min, 5 mM Tris-HCl pH 8.0, 25 mM KCl, 25% glycerol, 0.25 mM EDTA, 0.25 mM DTT; SDS-PAGE (15%), Coomassie; all tested concentrations
[2] = test system: SpnHU (HU, histone-like protein) (Streptococcus pneumoniae R6); experiment: EMSA (agarose); conditions: 2 nM DNA, 10 mM Tris-HCl pH 8.0, 50 mM KCl, 0.05% Brij 58, 0.01 mg/ml BSA, 5% glycerol, 0.01 mM EDTA, 0.01 mM DTT, room temperature 20 min, 0.5% agarose in TBE

stoichiometry N [1]: 2
Substance: HU of Streptococcus pneumoniae (SpnHU) (natural protein)

Substance: pBR322 linear (PstI)
binding signal ([2]; SpnHU concentration required for shift (8-fold more than supercoiled)): 1.6 µM

Substance: pBR322 nicked (Nt.BstNBI)
binding signal ([2]; SpnHU concentration required for shift (16-fold more than supercoiled), nicked with Nt.BstNBI): 3.2 µM

Substance: pBR322 supercoiled
binding signal ([2]; SpnHU concentration at which shift seen): 0.2 µM
